Assay results reported in the supplement of paper PMC10567573.

B1: NETO1 (parent)
chain: KTSLLDQLTNTSGTVIGVTSCIVI

Variants of: B1
Experiment: protein stability index of a GFP-peptide fusion (GPS, HEK-293T) (PSI 1-6); higher = more stable
Details: c terminus: a fixed tail appended
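Note: lentivirally expressed fusions sorted by FACS into six bins by GFP to DsRed ratio, PSI derived from sequencing read proportions per bin multiplied by bin number.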

| Variant | protein stability index |
| --- | --- |
| KTSLLLQLTNTSGTVIGVTSCIVI [D6L] | 2.92 |
| KTSLLMQLTNTSGTVIGVTSCIVI [D6M] | 2.53 |
| KTSLLNQLTNTSGTVIGVTSCIVI [D6N] | 2.37 |
| KTSLLPQLTNTSGTVIGVTSCIVI [D6P] | 1.82 |
| KTSLLQQLTNTSGTVIGVTSCIVI [D6Q] | 2.18 |
| KTSLLRQLTNTSGTVIGVTSCIVI [D6R] | 3.02 |
| KTSLLSQLTNTSGTVIGVTSCIVI [D6S] | 2.52 |
| KTSLLTQLTNTSGTVIGVTSCIVI [D6T] | 3.2 |
| KTSLLVQLTNTSGTVIGVTSCIVI [D6V] | 2.61 |
| KTSLLWQLTNTSGTVIGVTSCIVI [D6W] | 3.03 |
| KTSLLYQLTNTSGTVIGVTSCIVI [D6Y] | 3.38 |
| KTSLLDALTNTSGTVIGVTSCIVI [Q7A] | 2.92 |
| KTSLLDCLTNTSGTVIGVTSCIVI [Q7C] | 2.94 |
| KTSLLDDLTNTSGTVIGVTSCIVI [Q7D] | 3.75 |
| KTSLLDELTNTSGTVIGVTSCIVI [Q7E] | 2.27 |
| KTSLLDFLTNTSGTVIGVTSCIVI [Q7F] | 2.62 |
| KTSLLDGLTNTSGTVIGVTSCIVI [Q7G] | 3.62 |
| KTSLLDHLTNTSGTVIGVTSCIVI [Q7H] | 4.35 |
| KTSLLDILTNTSGTVIGVTSCIVI [Q7I] | 2.08 |
| KTSLLDKLTNTSGTVIGVTSCIVI [Q7K] | 2.87 |
| KTSLLDLLTNTSGTVIGVTSCIVI [Q7L] | 3.27 |
| KTSLLDMLTNTSGTVIGVTSCIVI [Q7M] | 2.37 |
| KTSLLDNLTNTSGTVIGVTSCIVI [Q7N] | 3.77 |
| KTSLLDPLTNTSGTVIGVTSCIVI [Q7P] | 2.88 |

| Variant | protein stability index |
| --- | --- |
| KTSLLDRLTNTSGTVIGVTSCIVI [Q7R] | 1.64 |
| KTSLLDSLTNTSGTVIGVTSCIVI [Q7S] | 2.36 |
| KTSLLDTLTNTSGTVIGVTSCIVI [Q7T] | 2.05 |
| KTSLLDVLTNTSGTVIGVTSCIVI [Q7V] | 3.45 |
| KTSLLDWLTNTSGTVIGVTSCIVI [Q7W] | 2.18 |
| KTSLLDYLTNTSGTVIGVTSCIVI [Q7Y] | 2.47 |
| KTSLLDQATNTSGTVIGVTSCIVI [L8A] | 2.76 |
| KTSLLDQCTNTSGTVIGVTSCIVI [L8C] | 3.29 |
| KTSLLDQDTNTSGTVIGVTSCIVI [L8D] | 3.02 |
| KTSLLDQETNTSGTVIGVTSCIVI [L8E] | 2.35 |
| KTSLLDQFTNTSGTVIGVTSCIVI [L8F] | 2.71 |
| KTSLLDQGTNTSGTVIGVTSCIVI [L8G] | 2 |
| KTSLLDQHTNTSGTVIGVTSCIVI [L8H] | 3.66 |
| KTSLLDQITNTSGTVIGVTSCIVI [L8I] | 3.38 |
| KTSLLDQKTNTSGTVIGVTSCIVI [L8K] | 2.99 |
| KTSLLDQMTNTSGTVIGVTSCIVI [L8M] | 2.83 |
| KTSLLDQNTNTSGTVIGVTSCIVI [L8N] | 2.56 |
| KTSLLDQPTNTSGTVIGVTSCIVI [L8P] | 2.5 |
| KTSLLDQQTNTSGTVIGVTSCIVI [L8Q] | 3.09 |
| KTSLLDQRTNTSGTVIGVTSCIVI [L8R] | 3.04 |
| KTSLLDQSTNTSGTVIGVTSCIVI [L8S] | 3.3 |
| KTSLLDQTTNTSGTVIGVTSCIVI [L8T] | 3.48 |
| KTSLLDQVTNTSGTVIGVTSCIVI [L8V] | 3.52 |
| KTSLLDQWTNTSGTVIGVTSCIVI [L8W] | 3.83 |

| Variant | protein stability index |
| --- | --- |
| KTSLLDQYTNTSGTVIGVTSCIVI [L8Y] | 3.41 |
| KTSLLDQLANTSGTVIGVTSCIVI [T9A] | 2.1 |
| KTSLLDQLCNTSGTVIGVTSCIVI [T9C] | 3.21 |
| KTSLLDQLDNTSGTVIGVTSCIVI [T9D] | 2.58 |
| KTSLLDQLFNTSGTVIGVTSCIVI [T9F] | 2.37 |
| KTSLLDQLGNTSGTVIGVTSCIVI [T9G] | 2.29 |
| KTSLLDQLHNTSGTVIGVTSCIVI [T9H] | 2.95 |
| KTSLLDQLINTSGTVIGVTSCIVI [T9I] | 2.33 |
| KTSLLDQLKNTSGTVIGVTSCIVI [T9K] | 3.98 |
| KTSLLDQLLNTSGTVIGVTSCIVI [T9L] | 3.09 |
| KTSLLDQLMNTSGTVIGVTSCIVI [T9M] | 2.4 |
| KTSLLDQLNNTSGTVIGVTSCIVI [T9N] | 3.29 |
| KTSLLDQLPNTSGTVIGVTSCIVI [T9P] | 2.6 |
| KTSLLDQLRNTSGTVIGVTSCIVI [T9R] | 2.21 |
| KTSLLDQLSNTSGTVIGVTSCIVI [T9S] | 2.72 |
| KTSLLDQLVNTSGTVIGVTSCIVI [T9V] | 2.63 |
| KTSLLDQLWNTSGTVIGVTSCIVI [T9W] | 3.88 |
| KTSLLDQLYNTSGTVIGVTSCIVI [T9Y] | 3.55 |
| KTSLLDQLTATSGTVIGVTSCIVI [N10A] | 2.13 |
| KTSLLDQLTCTSGTVIGVTSCIVI [N10C] | 2.71 |
| KTSLLDQLTDTSGTVIGVTSCIVI [N10D] | 2.47 |
| KTSLLDQLTETSGTVIGVTSCIVI [N10E] | 3.35 |
| KTSLLDQLTFTSGTVIGVTSCIVI [N10F] | 2.3 |
| KTSLLDQLTGTSGTVIGVTSCIVI [N10G] | 3.19 |

| Variant | protein stability index |
| --- | --- |
| KTSLLDQLTHTSGTVIGVTSCIVI [N10H] | 2.78 |
| KTSLLDQLTITSGTVIGVTSCIVI [N10I] | 3.08 |
| KTSLLDQLTKTSGTVIGVTSCIVI [N10K] | 3.15 |
| KTSLLDQLTLTSGTVIGVTSCIVI [N10L] | 3.8 |
| KTSLLDQLTMTSGTVIGVTSCIVI [N10M] | 3.51 |
| KTSLLDQLTPTSGTVIGVTSCIVI [N10P] | 2.96 |
| KTSLLDQLTQTSGTVIGVTSCIVI [N10Q] | 2.33 |
| KTSLLDQLTRTSGTVIGVTSCIVI [N10R] | 2.53 |
| KTSLLDQLTSTSGTVIGVTSCIVI [N10S] | 2.76 |
| KTSLLDQLTTTSGTVIGVTSCIVI [N10T] | 2.41 |
| KTSLLDQLTVTSGTVIGVTSCIVI [N10V] | 3.24 |
| KTSLLDQLTWTSGTVIGVTSCIVI [N10W] | 3.97 |
| KTSLLDQLTYTSGTVIGVTSCIVI [N10Y] | 2.62 |
| KTSLLDQLTNASGTVIGVTSCIVI [T11A] | 3.75 |
| KTSLLDQLTNCSGTVIGVTSCIVI [T11C] | 3.13 |
| KTSLLDQLTNDSGTVIGVTSCIVI [T11D] | 3.42 |
| KTSLLDQLTNESGTVIGVTSCIVI [T11E] | 5.03 |
| KTSLLDQLTNFSGTVIGVTSCIVI [T11F] | 2.35 |
| KTSLLDQLTNGSGTVIGVTSCIVI [T11G] | 2.93 |
| KTSLLDQLTNHSGTVIGVTSCIVI [T11H] | 3.21 |
| KTSLLDQLTNISGTVIGVTSCIVI [T11I] | 2.52 |
| KTSLLDQLTNKSGTVIGVTSCIVI [T11K] | 3.11 |
